Measured values reported in patent US20220306751A1 (MYTHIC THERAPEUTICS, published 2022).

T1: CD123 Protein, His Tag, Acro Biosciences Cat. No. ILA-H52H6 (Homo sapiens (Human), UniProt P26951 19-305)
T1 construct: Bought protein; not shown: His tag
T1 sequence: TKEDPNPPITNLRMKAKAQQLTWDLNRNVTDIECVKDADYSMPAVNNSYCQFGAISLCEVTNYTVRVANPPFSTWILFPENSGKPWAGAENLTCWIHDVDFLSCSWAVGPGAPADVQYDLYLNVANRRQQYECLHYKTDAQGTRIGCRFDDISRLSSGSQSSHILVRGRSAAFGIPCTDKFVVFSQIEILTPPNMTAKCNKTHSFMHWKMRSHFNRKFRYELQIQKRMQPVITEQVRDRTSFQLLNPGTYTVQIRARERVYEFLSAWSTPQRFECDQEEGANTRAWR


biological target: T1, CD123 Protein, His Tag, Acro …; assay: BLI, IgG on anti-human Fc sensor, 50 nM CD123, pH 7.4 and pH 5.4
Text: We selected IMGN632 (Heavy chain SEQ ID NO: 1, Light chain SEQ ID NO: 2) as a CD123-binding monoclonal antibody for pH engineering via histidine scanning. Briefly, CDRs in the heavy chain were identified using the methods described by Kabat et al (Kabat et al. (1992) Sequences of Proteins of Immunological Interest, DIANE publishing) and IMGT (Lefranc M P (1999) “The IMGT unique numbering for Immunoglobulins, T cell receptors and Ig-like domains” The Immunologist 7, 132-136), and for each CDR, residues falling under either or both Kabat and IMGT CDR definitions were called as CDR residues. To generate pH-dependent sequence variants, individual amino acid residues within the heavy chain CDRs were systematically substituted with a histidine, one at a time (MYT1252-MYT1292). In cases where the starting CDR residue was a histidine, it was mutated to an alanine. Antibody variants with only one histidine or alanine mutation in a heavy chain CDR were generated by co-transfection of Expi293 cells with a) one heavy chain sequence variant, and b) the corresponding starting ABPC light chain using methods known to the art. After allowing for four days of protein expression, cell culture supernatants were collected, quantified by SDS-PAGE analysis (FIG. 1), and the pH dependence of the variant was evaluated using biolayer interferometry (BLI) on an Octet RED 384 instrument. For constructs MYT1252, MYT1254-MYT1287, and MYT1289-1292, 104, of cell culture supernatant was diluted into 1904, of 1× PBST pH 7.4. For MYT1253 and MYT1288 254, and 504, of cell culture supernatant was diluted into 1754, and 1504, respectively. […] The resulting diluted supernatants were then captured on an anti-human Fc sensor (Forte Bio). A baseline was established using 1× PBST (50 mM Potassium Phosphate Buffer+150 mM NaCl+0.05% Tween 20) pH 7.4, and the sensor was associated with 50 nM of CD123 (CD123 Protein, His Tag, Acro Biosciences Cat. No. ILA-H52H6, Lot No. 1741d-89CF1-KB) in 1×PBST pH 7.4 for 120 sec to generate an association curve. In the dissociation phase, the antibody-antigen complex on the sensor was exposed to 1× PBST pH 7.4 for 300-600 sec. Baseline, association, and dissociation were repeated using 1×PBST pH 5.4 throughout in a separate condition.

Binder | binding result
MYT1289 (antibody, V domains shown, IgG) VH: QVQLVQSGAEVKKPGASVKVSCKASGYIFTSSIMHWVRQAPGQGLEWIGYIKPYNDGTKYNEKFKGRATLTSDRSTSTAYMELSSLRSEDTAVYYCAREGGNDYYDHMDYWGQGTLVTVSS VL: DIQMTQSPSSLSASVGDRVTITCRASQDINSYLSWFQQKPGKAPKTLIYRVNRLVDGVPSRFSGSGSGNDYTLTISSLQPEDFATYYCLQYDAFPYTFGQGTKVEIK | binds
MYT1292 (antibody, V domains shown, IgG) VH: QVQLVQSGAEVKKPGASVKVSCKASGYIFTSSIMHWVRQAPGQGLEWIGYIKPYNDGTKYNEKFKGRATLTSDRSTSTAYMELSSLRSEDTAVYYCAREGGNDYYDTMDHWGQGTLVTVSS VL: DIQMTQSPSSLSASVGDRVTITCRASQDINSYLSWFQQKPGKAPKTLIYRVNRLVDGVPSRFSGSGSGNDYTLTISSLQPEDFATYYCLQYDAFPYTFGQGTKVEIK | binds
MYT2754 (antibody, V domains shown, IgG) VH: QVQLVQSGAEVKKPGASVKVSCKASGHIFTSSIMHWVRQAPGQGLEWIGYIKPYNDGTKYNEKFKGRATLTSDRSTSTAYMELSSLRSEDTAVYYCAREGGNDYHDTMDYWGQGTLVTVSS VL: DIQMTQSPSSLSASVGDRVTITCRASQDINSYLSWFQQKPGKAPKTLIYRVNRLVDGVPSRFSGSGSGNDYTLTISSLQPEDFATYYCLQYDAFPYTFGQGTKVEIK | binds
MYT1291 (antibody, V domains shown, IgG) VH: QVQLVQSGAEVKKPGASVKVSCKASGYIFTSSIMHWVRQAPGQGLEWIGYIKPYNDGTKYNEKFKGRATLTSDRSTSTAYMELSSLRSEDTAVYYCAREGGNDYYDTMHYWGQGTLVTVSS VL: DIQMTQSPSSLSASVGDRVTITCRASQDINSYLSWFQQKPGKAPKTLIYRVNRLVDGVPSRFSGSGSGNDYTLTISSLQPEDFATYYCLQYDAFPYTFGQGTKVEIK | binds

Other lines, results leading:

binding result | Binder
binds | MYT2753 (antibody, V domains shown, IgG) VH: QVQLVQSGAEVKKPGASVKVSCKASGHIFTSSIMAWVRQAPGQGLEWIGYIKPYNDGTKYNEKFKGRATLTSDRSTSTAYMELSSLRSEDTAVYYCAREGGNDYYDTMDYWGQGTLVTVSS VL: DIQMTQSPSSLSASVGDRVTITCRASQDINSYLSWFQQKPGKAPKTLIYRVNRLVDGVPSRFSGSGSGNDYTLTISSLQPEDFATYYCLQYDAFPYTFGQGTKVEIK
binds | MYT1290 (antibody, V domains shown, IgG) VH: QVQLVQSGAEVKKPGASVKVSCKASGYIFTSSIMHWVRQAPGQGLEWIGYIKPYNDGTKYNEKFKGRATLTSDRSTSTAYMELSSLRSEDTAVYYCAREGGNDYYDTHDYWGQGTLVTVSS VL: DIQMTQSPSSLSASVGDRVTITCRASQDINSYLSWFQQKPGKAPKTLIYRVNRLVDGVPSRFSGSGSGNDYTLTISSLQPEDFATYYCLQYDAFPYTFGQGTKVEIK
binds | MYT2755 (antibody, V domains shown, IgG) VH: QVQLVQSGAEVKKPGASVKVSCKASGHIFTSSIMHWVRQAPGQGLEWIGYIKPYNDGTKYNEKFKGRATLTSDRSTSTAYMELSSLRSEDTAVYYCAREGGNDYYDHMDYWGQGTLVTVSS VL: DIQMTQSPSSLSASVGDRVTITCRASQDINSYLSWFQQKPGKAPKTLIYRVNRLVDGVPSRFSGSGSGNDYTLTISSLQPEDFATYYCLQYDAFPYTFGQGTKVEIK
binds | MYT2756 (antibody, V domains shown, IgG) VH: QVQLVQSGAEVKKPGASVKVSCKASGHIFTSSIMHWVRQAPGQGLEWIGYIKPYNDGTKYNEKFKGRATLTSDRSTSTAYMELSSLRSEDTAVYYCAREGGNDYYDTMHYWGQGTLVTVSS VL: DIQMTQSPSSLSASVGDRVTITCRASQDINSYLSWFQQKPGKAPKTLIYRVNRLVDGVPSRFSGSGSGNDYTLTISSLQPEDFATYYCLQYDAFPYTFGQGTKVEIK
